# Molecular target: recombinant human FcγRIIa/CD32 R131 (Lumit binding immunoassay) (human) (UniProt P12318)
# Test: Lumit FcγRIIa (CD32) (R131) Binding Immunoassay (Promega), competition with Tracer-LgBiT for FcγR-SmBiT, luminescence, n=1; right panel
# Chain of recombinant human FcγRIIa/CD32 R131 (Lumit binding immunoassay) (human) (P12318 34-217 H167R limits assumed): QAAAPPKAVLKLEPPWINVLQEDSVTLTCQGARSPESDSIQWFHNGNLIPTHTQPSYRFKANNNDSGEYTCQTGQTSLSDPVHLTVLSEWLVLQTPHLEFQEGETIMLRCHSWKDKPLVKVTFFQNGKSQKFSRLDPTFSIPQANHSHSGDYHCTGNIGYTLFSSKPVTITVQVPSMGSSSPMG
substance,measurement,value
IgG1 positive control (standard of the Lumit FcγR Binding Immunoassays) (antibody),IC50 (read off the curve),3 µg/mL
